Data taken from the RNAGym collection of RNA variant scans (doi:10.1073/pnas.2313332121).

B1: TPR t1 (parent)
chain: GACCAAUCUGCCCUCAGAGCUCGAGAACAUCUUCGGAUGCAGAGGAGGCAGGCUUCGGUGGCGCGAUAGCGCCAACGUCCUCAACCUCCAAUGCAUCCCACCACAUGAUGAUGCCUGAAGAGCCUUGGUUUUUUG

Variants of: B1
Experiment: polymerase ribozyme fitness, log enrichment relative to wild type (log ratio); higher = more active; in vitro selection for triplet polymerase activity
How it was run: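 Each subunit of a heterodimeric triplet polymerase ribozyme was represented by a PCR-built, transcribed mutant library that underwent triplicate single-round in vitro selection with frozen incubation at −7 °C. Extended constructs were recovered by gel excision, streptavidin-bead capture and RT-PCR, and Illumina sequencing of input and output libraries kept genotypes with ≥10 input reads and ≥1 read per output. Fitness is the logarithm of genotype enrichment relative to wild-type enrichment, from inverse-variance-weighted replicate averages, with a logarithm base of 2.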

| Variant | polymerase ribozyme fitness (log ratio) |
| --- | --- |
| U38C G44U A91U G120U | -2.19 |
| U38C G44U A111G U133G | -1.11 |
| U38C G45A U54A A83C G120U | -0.856 |
| U38C G48U A68G G122A C123U | -3.71 |
| U38C G71A | -1.37 |
| U38C G71C C82A A83U A90G | -2.39 |
| U38C U54A G77A U96A G120A | -4.19 |
| U38G A83G | -1.98 |
| U38G A91C | -2.88 |
| U38G C49A C73U C86U U109G U126A | -5.53 |
| U38G C49U C80G | -4.88 |
| U38G C56U U81A U131C | -2.23 |
| U38G C79G | -2.67 |
| U38G C88U | -0.426 |
| U38G G39U U54G G69U U87A G113C | -4.25 |
| U38G G44A G63C U96C | -2.8 |
| U38G G47C C114A | -5.64 |
| U38G G52A C62U C114A | -3.2 |
| U38G G52U | -2.27 |
| U38G G61C U96G G122A | -4.11 |
| U38G G61U | -0.532 |
| U38G G69A U112A | -4.05 |
| U38G U54A | -0.658 |
| U38G U54G | -0.407 |

| Variant | polymerase ribozyme fitness (log ratio) |
| --- | --- |
| U38G U55G A121C | 1.28 |
| U38G U78G | -0.583 |
| U38G U87A A95C | -1.01 |
| U38G U92A U109G C114A G122U | -6.12 |
| G39A A50G C79A | -2.95 |
| G39A A66U C123U | -0.175 |
| G39A A83U | -0.65 |
| G39A A84U | -1.22 |
| G39A A95G C115A | -0.556 |
| G39A C40A G45U | -4.88 |
| G39A C40G | -1.68 |
| G39A C49A G122A C123G | 0.869 |
| G39A C49U G57A A84U C97U G120C C124U G128U U132A | -2.74 |
| G39A C49U U78C | -1.72 |
| G39A C56U C85U A111U | -3.84 |
| G39A C64U | 0.0887 |
| G39A C64U C124A | 1.06 |
| G39A C70G | -3.16 |
| G39A C72A A91U C94A | -2.84 |
| G39A C72G | -0.976 |
| G39A C72G G113A | -2.17 |
| G39A C79A C114G A121C | -4.29 |
| G39A G42A | -2.67 |
| G39A G42U C72A | -1.57 |

| Variant | polymerase ribozyme fitness (log ratio) |
| --- | --- |
| G39A G44A C62G U78C | -6.69 |
| G39A G44A G77A | -2.46 |
| G39A G44A U78C | -1.89 |
| G39A G48A C73A A100C G120A | -0.862 |
| G39A G48C A50U C94U C114G | -4.57 |
| G39A G51A | -2.96 |
| G39A G51A C64U U78C | -3.91 |
| G39A G51U A83G A95C | -3.53 |
| G39A G51U A83G A95C C124A | -2.8 |
| G39A G52A C72U C85U A95C G113U | -5.94 |
| G39A G57U C80A A121C | 0.47 |
| G39A G60C G113C C115A | -4.37 |
| G39A G61C C72U G117A | -1.82 |
| G39A G61U | -0.116 |
| G39A G63A | -1 |
| G39A G63C C72A | -4.54 |
| G39A G69C C124U | -0.485 |
| G39A G69U U96A C104A G113A U126C | -3.63 |
| G39A G71A C82U U87C U132C | -1.47 |
| G39A G71U A84U | -0.797 |
| G39A G93A | -2.02 |
| G39A G110A | -1.31 |
| G39A G113C | -2.69 |
| G39A G113C C124G | -1.58 |

| Variant | polymerase ribozyme fitness (log ratio) |
| --- | --- |
| G39A U54A A83U U92G | -4.73 |
| G39A U55A G77C A84C | -2.23 |
| G39A U112A | 0.854 |
| G39C A41U G60A | -2.76 |
| G39C A50U G61A | -1.4 |
| G39C A66C | -1.94 |
| G39C C49G G77U C94A C98G C102U C123A U131A | -5.44 |
| G39C C56G | -1.53 |
| G39C C70U U112C | 1.16 |
| G39C C89U C115G C123A | -4.39 |
| G39C C114U | -1.75 |
| G39C G42U G47C | -3.36 |
| G39C G48U C73A A100U | -2.09 |
| G39C G48U G57C | -1.92 |
| G39C G52A | -1.32 |
| G39C G61C A83G | -3.89 |
| G39C G63C | -1.54 |
| G39C G69A C115U G120A | -6.08 |
| G39C G69C | -2.22 |
| G39C G71C C86U | -2.13 |
| G39C G110A | -1.82 |
| G39C G120U | -1.35 |
| G39C G127C | -1.46 |
| G39C U54A | -0.125 |

| Variant | polymerase ribozyme fitness (log ratio) |
| --- | --- |
| G39C U54A G58U C114A | -2.27 |
| G39U A41U | -2.97 |
| G39U A41U A95C G117U | -4.57 |
| G39U A41U C104U C123A | -2.95 |
| G39U A46G C115G | -3.39 |
| G39U A46G G63A C115G | -1.83 |
| G39U A84C G122A C123A C124A | 0.979 |
| G39U A84U | -1.03 |
| G39U A95U | -1.27 |
| G39U A105C | -3.64 |
| G39U A111C C124A | 0.34 |
| G39U C40A A43G C56G C104U U130C | -4.61 |
| G39U C40G U106A U109A G120C | -5.48 |
| G39U C53A G63U U126A | -5.66 |
| G39U C53G U116C | -2.62 |
| G39U C56A A84C G113U | -4.13 |
| G39U C56G C72G U112C C124U | -1.3 |
| G39U C62A C86A | -5.05 |
| G39U C62U C99U | -5.08 |
| G39U C62U C115G | -1.99 |
| G39U C64U | -0.207 |
| G39U C70A | -2.96 |
| G39U C73U | -1.52 |
| G39U C76A U125G | -2.02 |

| Variant | polymerase ribozyme fitness (log ratio) |
| --- | --- |
| G39U C80U C101A A111U | -5.03 |
| G39U C85A A90G A119U C123G U125G | -1.21 |
| G39U C86A U106A | -2.01 |
| G39U C86U | -1.64 |
| G39U C98U | -1.66 |
| G39U C114U G120A G127C | -2.98 |
| G39U G45U C73G | -2.79 |
| G39U G47C G57U A84C | -3.89 |
| G39U G51A | -3.64 |
| G39U G52A G63U | -2.37 |
| G39U G52C C53A A83U | -3.01 |
| G39U G52U C70U | -2.08 |
| G39U G60A U78C G127U | -2.06 |
| G39U G60C | -0.892 |
| G39U G61A C85U | -0.878 |
| G39U G63U | -1.63 |
| G39U G69U C73A C124U | 0.671 |
| G39U G71U | -1.16 |
| G39U G77C | -1.76 |
| G39U G93A C123A | -1.36 |
| G39U G117U | -3.23 |
| G39U G117U A118C | -4.29 |
| G39U G122A | -1.25 |
| G39U G127C | -1.28 |

| Variant | polymerase ribozyme fitness (log ratio) |
| --- | --- |
| G39U U78C U96A | -4.33 |
| G39U U87C | -0.0295 |
| G39U U92A G110U U132A | -5.12 |
| G39U U92C | -1.97 |
| G39U U92C C115U A119U | -3.57 |
| C40A A41U A43U G44C | -3.15 |
| C40A A41U G57C C104U C114U | -3.33 |
| C40A A43C G120C U130A | -2.63 |
| C40A A43U | -2.77 |
| C40A A46U C114A | -4.55 |
| C40A A50U A95C | -3.28 |
| C40A A90C G93U | -1.13 |
| C40A A90G C123U | 0.623 |
| C40A C49U | -2.52 |
| C40A C53U G63A | -2.24 |
| C40A C56A C73U A84C | -2.23 |
| C40A C56G G61A | -4.03 |
| C40A C56U | -0.58 |
| C40A C56U U87A | -1.61 |
| C40A C70A | -2.89 |
| C40A C70U C124U | -0.171 |
| C40A C72A A100C U132C | -2.7 |
| C40A C72A U81A A119U | -3.46 |
